Where a chain is given by its changes, count along the chain named. “And” between values parts separate entries of the source, which are not always exact repeats. Identical values can stand only once.
T1: human BCMA (B cell maturation antigen), expressed on cells (human, UniProt Q02223 1-184)
T1 construct: whole, on cells; Overexpressed on Flp-in CHO cells; also called Flp-inCHO-human BCMA cells; CD269
T1 sequence (looked up): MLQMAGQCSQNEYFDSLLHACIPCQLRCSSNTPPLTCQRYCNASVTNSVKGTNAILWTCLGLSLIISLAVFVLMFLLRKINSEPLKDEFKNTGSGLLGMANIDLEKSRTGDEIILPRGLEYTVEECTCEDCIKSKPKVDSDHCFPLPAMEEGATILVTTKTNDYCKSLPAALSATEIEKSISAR

B1: JNJ7564 (bispecific antibody targeting GPRC5D and CD3, Johnson & Johnson, WO 2019220368 A1) (bispecific antibody, human IgG4 S228P, kappa, lambda, F234A L235A)
heavy 1: not shown
light 1: DIQMTQSPSSLSASVGDRVTITCKASQNVATHVGWYQQKPGKAPKRLIYSASYRYSGVPSRFSGSGSGTEFTLTISNLQPEDFATYYCQQYNRYPYTFGQGTKLEIKRTVAAPSVFIFPPSDEQLKSGTASVVCLLNNFYPREAKVQWKVDNALQSGNSQESVTEQDSKDSTYSLSSTLTLSKADYEKHKVYACEVTHQGLSSPVTKSFNRGEC
heavy 2: EVQLVESGGGLVQPGGSLRLSCAASGFTFNTYAMNWVRQAPGKGLEWVARIRSKYNNYATYYAASVKGRFTISRDDSKNSLYLQMNSLKTEDTAVYYCARHGNFGNSYVSWFAYWGQGTLVTVSSASTKGPSVFPLAPCSRSTSESTAALGCLVKDYFPEPVTVSWNSGALTSGVHTFPAVLQSSGLYSLSSVVTVPSSSLGTKTYTCNVDHKPSNTKVDKRVESKYGPPCPPCPAPEAAGGPSVFLFPPKPKDTLMISRTPEVTCVVVDVSQEDPEVQFNWYVDGVEVHNAKTKPREEQFNSTYRVVSVLTVLHQDWLNGKEYKCKVSNKGLPSSIEKTISKAKGQPREPQVYTLPPSQEEMTKNQVSLTCLVKGFYPSDIAVEWESNGQPENNYKTTPPVLDSDGSFLLYSKLTVDKSRWQEGNVFSCSVMHEALHNHYTQKSLSLSLGK
light 2: QTVVTQEPSLTVSPGGTVTLTCRSSTGAVTTSNYANWVQQKPGQAPRGLIGGTNKRAPGTPARFSGSLLGGKAALTLSGVQPEDEAEYYCALWYSNLWVFGGGTKLTVLGQPKAAPSVTLFPPSSEELQANKATLVCLISDFYPGAVTVAWKADSSPVKAGVETTTPSKQSNNKYAASSYLSLTPEQWKSHRSYSCQVTHEGSTVEKTVAPTECS
notes: Positive control, made by reduction and reoxidation of the two monospecific antibodies
B2: antiFITC×CD3-Hab01 (negative control antibody, prepared internally) (bispecific antibody, human IgG4 S228P, kappa, F234A L235A)
heavy: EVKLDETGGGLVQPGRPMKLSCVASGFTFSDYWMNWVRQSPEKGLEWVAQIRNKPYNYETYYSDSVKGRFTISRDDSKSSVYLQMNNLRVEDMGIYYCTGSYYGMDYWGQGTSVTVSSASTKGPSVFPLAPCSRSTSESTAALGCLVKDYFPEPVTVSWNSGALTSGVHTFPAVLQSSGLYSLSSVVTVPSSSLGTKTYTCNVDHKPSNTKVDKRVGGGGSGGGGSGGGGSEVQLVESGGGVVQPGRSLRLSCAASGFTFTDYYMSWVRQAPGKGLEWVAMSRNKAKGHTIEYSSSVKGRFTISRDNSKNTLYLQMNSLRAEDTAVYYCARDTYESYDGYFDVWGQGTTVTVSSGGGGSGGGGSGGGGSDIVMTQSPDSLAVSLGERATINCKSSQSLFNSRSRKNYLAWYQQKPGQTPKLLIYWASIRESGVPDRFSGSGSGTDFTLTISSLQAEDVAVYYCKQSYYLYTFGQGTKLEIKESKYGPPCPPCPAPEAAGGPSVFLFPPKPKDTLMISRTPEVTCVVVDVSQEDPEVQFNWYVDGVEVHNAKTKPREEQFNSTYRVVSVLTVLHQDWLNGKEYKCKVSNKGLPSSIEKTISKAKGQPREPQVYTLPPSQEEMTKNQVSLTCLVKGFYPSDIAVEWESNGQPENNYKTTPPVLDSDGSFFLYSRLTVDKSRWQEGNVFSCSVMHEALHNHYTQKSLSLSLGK
light: DVVMTQTPLSLPVSLGDQASISCRSSQSLVHSNGNTYLRWYLQKPGQSPKVLIYKVSNRFSGVPDRFSGSGSGTDFTLKISRVEAEDLGVYFCSQSTHVPWTFGGGTKLEIKRTVAAPSVFIFPPSDEQLKSGTASVVCLLNNFYPREAKVQWKVDNALQSGNSQESVTEQDSKDSTYSLSSTLTLSKADYEKHKVYACEVTHQGLSSPVTKSFNRGEC
notes: Negative control for the tumor antigens
B3: REGN5459 (bispecific antibody targeting BCMA and CD3, Regeneron, WO 2020018820 A1) (bispecific antibody, human IgG4 S228P, kappa)
heavy 1: EVQLVESGGGLVQPGGSLRLSCAASGFTFSNFWMTWVRQAPGKGLEWVANMNQDGSEKYYVDSVKGRFTISRDNAKSSLYLQMNSLRAEDTAVYYCARDREYCISTSCYDDFDYWGQGTLVTVSSASTKGPSVFPLAPCSRSTSESTAALGCLVKDYFPEPVTVSWNSGALTSGVHTFPAVLQSSGLYSLSSVVTVPSSSLGTKTYTCNVDHKPSNTKVDKRVESKYGPPCPPCPAPPVAGPSVFLFPPKPKDTLMISRTPEVTCVVVDVSQEDPEVQFNWYVDGVEVHNAKTKPREEQFNSTYRVVSVLTVLHQDWLNGKEYKCKVSNKGLPSSIEKTISKAKGQPREPQVYTLPPSQEEMTKNQVSLTCLVKGFYPSDIAVEWESNGQPENNYKTTPPVLDSDGSFFLYSRLTVDKSRWQEGNVFSCSVMHEALHNHYTQKSLSLSLGK
heavy 2: EVQLVESGGGLVQPGRSLRLSCAASGFTFDDYSMHWVRQAPGKGLEWVSGISWNSGSIGYADSVKGRFTISRDNAKNSLYLQMNSLRAEDTALYYCAKYGSGYGKFYYYGMDVWGQGTTVTVSSASTKGPSVFPLAPCSRSTSESTAALGCLVKDYFPEPVTVSWNSGALTSGVHTFPAVLQSSGLYSLSSVVTVPSSSLGTKTYTCNVDHKPSNTKVDKRVESKYGPPCPPCPAPPVAGPSVFLFPPKPKDTLMISRTPEVTCVVVDVSQEDPEVQFNWYVDGVEVHNAKTKPREEQFNSTYRVVSVLTVLHQDWLNGKEYKCKVSNKGLPSSIEKTISKAKGQPREPQVYTLPPSQEEMTKNQVSLTCLVKGFYPSDIAVEWESNGQPENNYKTTPPVLDSDGSFFLYSRLTVDKSRWQEGNVFSCSVMHEALHNRFTQKSLSLSLGK
light: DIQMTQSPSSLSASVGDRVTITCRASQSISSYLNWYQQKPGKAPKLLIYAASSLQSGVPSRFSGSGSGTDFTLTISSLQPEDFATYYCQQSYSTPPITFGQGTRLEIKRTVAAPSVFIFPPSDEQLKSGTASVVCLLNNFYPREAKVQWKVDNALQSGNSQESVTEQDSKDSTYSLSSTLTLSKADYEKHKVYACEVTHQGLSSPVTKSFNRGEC
notes: Positive control, expressed in Expi293F by the applicants; also called RGEN5459
B4: Tri-65 anti-BCMA-GPRC5D-CD3 trispecific antibody (other)
VHH: EVQLVESGGGLVQPGGSLRLSCAASESISSIHIMAWYRQAPGKQRELVAGIRNDGSTVYVDSVKGRFTISRDNAKNSLYLQMNSLRAEDTAVYYCNADQGFGSYSEWERRSRWGQGTTVTVSS
VH 1: EVQLVQSGAEVKKPGASVKVSCKTSGYIFTNFGITWVRQAPGQRLEWMGENYPRRINTYYNEKFKGRVTITADKSASTAYMELSSLRSEDTAVYYCSRKDIFGLSYALDYWGQGTTVTVSS
VL 1: DIQMTQSPSSLSASVGDRVTITCKASQNVGTNVAWYQHKPGKSPKALIYSASYQYSGVPSRFSGSGSGTDFTLTISSLQPEDVATYICQQYKNYPYTFGGGTKVEIK
VH 2: EVQLVESGGGVVQPGRSLRLSCAASGFTFTDYYMSWVRQAPGKGLEWVAMSRNKAKGHTIEYSSSVKGRFTISRDNSKNTLYLQMNSLRAEDTAVYYCARDTYESYDGYFDVWGQGTTVTVSS
VL 2: DIVMTQSPDSLAVSLGERATINCKSSQSLFNSRSRKNYLAWYQQKPGQTPKLLIYWASIRESGVPDRFSGSGSGTDFTLTISSLQAEDVAVYYCKQSYYLYTFGQGTKLEIK
chain 1: ESKYGPPCPPCPAPEAAGGPSVFLFPPKPKDTLMISRTPEVTCVVVDVSQEDPEVQFNWYVDGVEVHNAKTKPREEQFNSTYRVVSVLTVLHQDWLNGKEYKCKVSNKGLPSSIEKTISKAKGQPREPQVYTLPPSQEEMTKNQVSLWCLVKGFYPSDIAVEWESNGQPENNYKTTPPVLDSDGSFFLYSRLTVDKSRWQEGNVFSCSVMHEALHNHYTQKSLSLSLG
chain 2: B4 chain 1 with W148S, L150A, Y189V
notes: Trispecific antibody; Asymmetric (purification method C)
B5: Tri-66 anti-BCMA-GPRC5D-CD3 trispecific antibody (other)
VHH: B4 VHH
VH 1: B4 VH 1
VL 1: B4 VL 1
VH 2: B4 VH 2
VL 2: B4 VL 2
chain 1: B4 chain 1
chain 2: B4 chain 1 with W148S, L150A, Y189V
notes: as for B4
B6: Tri-38 anti-BCMA-GPRC5D-CD3 trispecific antibody (other)
VHH: EVQLVESGGGLVQPGGSLRLSCSASGFTLDYYMIGWFRQAPGKEREGLSSISPADGSTYYADSVKGRFTISRDSSKNTVYLQMNSLRAEDTAVYYCAAGNEATISWGFGPWEYDYWGQGTMVTVSS
VH 1: EVQLVQSGAEVKKPGSSVKVSCKASGYTFTSYGISWVRQAPGQGLEWMGEIYPRSGNTYYNEKFKGRVTLTADKSTSTAYMELSSLRSEDTAVYYCARGRAYGRNYPMDYWGQGTTVTVSS
VL 1: EIVLTQSPATLSLSPGERATLSCRASQSIGTSIHWYQQKPGQSPRLLIKYASESISGIPARFSGSGSGTDFTLTISSLEPEDFAVYYCQQSNSWPYTFGGGTKVEIK
VH 2: B4 VH 2
VL 2: B4 VL 2
chain 1: EPKSSDKTHTCPPCPAPEAAGGPSVFLFPPKPKDTLMISRTPEVTCVVVDVSHEDPEVKFNWYVDGVEVHNAKTKPREEQYNSTYRVVSVLTVLHQDWLNGKEYKCKVSNKALPAPIEKTISKAKGQPREPQVYTLPPSREEMTKNQVSLWCLVKGFYPSDIAVEWESNGQPENNYKTTPPVLDSDGSFFLYSKLTVDKSRWQQGNVFSCSVMHEALHNHYTQKSLSLSPG
chain 2: B6 chain 1 with W151S, L153A, Y192V
notes: Trispecific antibody; Asymmetric (purification method B)
B7: Tri-41 anti-BCMA-GPRC5D-CD3 trispecific antibody (other)
VHH: B6 VHH
VH 1: B6 VH 1
VL 1: B6 VL 1
VH 2: B4 VH 2
VL 2: B4 VL 2
chain 1: B6 chain 1
chain 2: B6 chain 1 with W151S, L153A, Y192V
notes: as for B6

These binders were tested against T2, monkey CD3, on activated monkey PBMC (monkey) (assay: FACS, activated monkey PBMC).
T2 construct: whole, on cells
T2 sequence (Q95LI5 22-198): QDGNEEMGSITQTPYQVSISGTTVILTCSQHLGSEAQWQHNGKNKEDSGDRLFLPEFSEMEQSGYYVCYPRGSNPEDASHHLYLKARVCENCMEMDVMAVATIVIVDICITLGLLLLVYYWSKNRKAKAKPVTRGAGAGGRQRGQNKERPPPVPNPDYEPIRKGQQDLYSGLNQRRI

Binder	EC50
B1	5.79 nM and 5.72 nM
B2	15.2 nM and 12.4 nM
B3	161 nM

The binders below were run against T3, human GPRC5D, expressed on cells (human, UniProt Q9NZD1 1-345) (assay: FACS, CHOK1-human GPRC5D cells).
T3 construct: whole, on cells; Overexpressed on CHOK1 cells; also called CHOK1-human GPRC5D cells
T3 sequence (Q9NZD1 whole entry): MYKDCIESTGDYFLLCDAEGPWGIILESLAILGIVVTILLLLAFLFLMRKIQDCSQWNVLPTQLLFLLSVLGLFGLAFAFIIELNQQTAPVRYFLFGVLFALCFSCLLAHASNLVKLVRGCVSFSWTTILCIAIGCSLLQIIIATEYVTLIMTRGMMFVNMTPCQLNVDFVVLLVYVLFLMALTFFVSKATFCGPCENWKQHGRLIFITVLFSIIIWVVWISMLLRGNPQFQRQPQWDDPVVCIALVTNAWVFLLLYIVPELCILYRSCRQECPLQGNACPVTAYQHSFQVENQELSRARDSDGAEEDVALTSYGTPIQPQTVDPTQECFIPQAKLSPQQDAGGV
Method: (§1) Flp-inCHO-human BCMA cells and CHOK1-human GPRC5D cells were scale-up cultured in T-75 cell culture flask to the logarithmic growth phase, respectively, and the cells were pipetted to obtain a single cell suspension. After the cells were counted and centrifuged, the cell precipitate was resuspended to 2×10⁶ cells per milliliter with a FACS buffer (PBS+2% fetal bovine serum). The suspension was added to a 96-well FACS reaction plate at 50 μl/well. 8 concentrations of the anti-BCMA-GPRC5D-CD3 antibodies or control antibodies were added at 50 μl/well, wherein gradient dilution was performed at a dilution ratio of 5 from a concentration of 100 nM. The cells were incubated at 4° C. for 1 h. The obtained mixture was centrifuged and washed 3 times with a PBS buffer. […] The obtained mixture was centrifuged and washed 3 times with a PBS buffer. 100 μl of the mixture was taken for detection and result analysis by FACS (FACS Canto™, purchased from BD Company). Data analysis was performed by software (FlowJo) to obtain the mean fluorescence intensity (MFI) of the cells. Then, a software (GraphPad Prism8) was used for analysis, data fitting and EC50 calculation.

Binder	EC50 [nM]
B4	1.66
B5	1.53
B6	2.06
B7	4.3

These binders were tested against T1, human BCMA (B cell maturation antigen), … (assay: FACS, Flp-inCHO-human BCMA cells).
Method: as §1

Binder	EC50 [nM]
B4	2.54
B5	1.09
B6	4.43
B7	1.52

From US20260265390A1 (SHANDONG SIMCERE BIOPHARMACEUTICAL, published 2026)
